Our source for the Kd, percent dimeric and stoichiometry N values is article PMC5614878.

In assay [1] the target is HIV-1 reverse transcriptase p66 p66 (Human immunodeficiency virus 1) (UniProt O93215). The conditions noted are these: cited from earlier work.
The target in assay [2] is p51 (polymerase domain of HIV-1 reverse transcriptase) (HIV-1) (UniProt P03366). Nature of the assay: NMR.

As usually defined, the Kd is the free concentration of one partner at which half of the binding sites on the other are occupied at equilibrium, for simple one-to-one binding. For the substance “HIV-1 reverse transcriptase p66 p66 (from UniProt O93215)”, the Kd in assay [1] was 4 µM.

As a reminder, the stoichiometry N is a count of units in the complex or per binding partner. In the case of “p51 (polymerase domain of HIV-1 reverse transcriptase) (from UniProt P03366 600-1025) (domain or fragment)”, in assay [2], the percent dimeric is 80% and the stoichiometry N is 2.
